The target of data set [1] is T1, VEGF (UniProt P15692-4 P15692-4:27-191). Nature of the data set: filter; dot-blot in PBS. The settings on record: chain copies: 2. The method, then: (§1) Binding assays were performed with trace ³²P-body-labelled transcripts that were incubated with various protein concentrations in silanized wells, these were then passed through a sandwich of a nitrocellulose membrane over a nylon membrane. Protein-bound RNA is visualized on the NC membrane, unbound RNA on the nylon membrane. The proportion binding is then used to calculate affinity (see FIGS. 4, 5, and 6). The nomenclature “mGXG” indicates a substitution of 2′-OH G for 2′-OMe G at position “X”, as numbered sequentially from the 5′-terminus. Thus, mG7G ARC224 is ARC224 with a 2′-OH at position 7. ARC225 is ARC224 with 2′-OMe to 2′-OH substitutions at positions 7, 10, 14, 16, 19, 22 and 24. All constructs (initially identified by SELEX™) were generated by solid-phase chemical synthesis.

The target in data set [2] is T2, IFN-gamma (Homo sapiens, UniProt P01579 P01579:24-161). Nature of the data set: inhibition; ELISA day 2; text assigns ARC873 to F3 but printed sequence matches E3. The settings on record: tags: R&D Systems, Minneapolis; chain copies: 2; putative G4. As to the method:
(§2) IFN-γ ELISA: The following ELISA method was used to measure the ability of IFN-γ aptamers to inhibit hIFN-γ from binding to the IFNγ-R1 receptor. To capture the IFNγ-R1, 175 ng of IFNγ-R1 (R&D systems, Minneapolis, Minn.) in 100 μl of PBS (pH 7.4) was incubated in each well of a Nunc Maxisorb plate (Nunc, Rochester, N.Y.) for 2 hours at room temperature. The solution was discarded and the plate was washed 3 times with 200 μl of TBS-T (25 mM Tris-HCl pH 7.5, 150 mM NaCl and 0.01% Tween −20). The plate was then blocked with 200 μl of 5% nonfat dry milk in TBS-T for 30 minutes at room temperature. After blocking, the plate was washed 3 times with 200 μl of TBS-T. Then, 100 μl of various concentrations of aptamers mixed with 5 nmoles of IFN-γ (R & D Systems) were incubated in appropriate wells for 1.5 hours at room temperature. […] Subsequently, 100 μl of 2 N H₂SO₄ was added to stop the reaction and the plate was read in a SpectraMax 96 well plate reader at […].
(§3) IFNγ-R1 Binding Inhibition with hIFN-γ Aptamers: Five full length and 2 minimized aptamers to IFN-γ were tested for receptor binding inhibition activity using the ELISA method described above. […] IC₅₀'s for the duplicate assays were calculated and are shown in Table 22 below along with Kd values for each of the respective aptamers.

Data set [3] addresses T2, IFN-gamma. Nature of the data set: inhibition; IFN-gamma/IFN-gamma-R1 ELISA day 1; day 2 100 nM. As to conditions: tags: R&D Systems, Minneapolis; chain copies: 2; label: 5'-32P. As to the method:
as §2, §3
In general terms: ELISA stands for enzyme-linked immunosorbent assay.

The target in data set [4] is T2, IFN-gamma. Nature of the data set: filter; 1x DPBS, 0.1 mg/ml BSA; Table 21 gives 97. As to conditions: tags: R&D Systems, Minneapolis; chain copies: 2; label: 5'-32P.
Data set [5] has as its target T3, Complement C5 full length (Homo sapiens, UniProt P01031;P01031 P01031:19-673,P01031:678-1676). Nature of the data set: inhibition; 0.2% human serum, sheep erythrocytes, GVB++, 25 C. As to conditions: tags: Quidel Corporation, San Diego. The method, then:
Hemolysis Assay: The effect of the AMX221.E1 clone on the classical pathway of the complement system was analyzed using a hemolysis assay compared to both ARC186 (Anti-C5 aptamer, positive control) and unselected dRmY pool (negative control). In the assay of hemolytic inhibition, a solution of 0.2% whole human serum was mixed with antibody-coated sheep erythrocytes (Diamedix EZ Complement CH50 Test, Diamedix Corporation, Miami, Fla.) in the presence oftitrated AMX221.E1. The assay was run in veronal-buffered saline containing calcium, magnesium and 1% gelatin (GVB⁺⁺ complement buffer) and incubated for 1 hr at 25° C. After incubation the samples were centrifuged. The optical density at 415 nm (OD₄₁₅) of the supernatant was read. The inhibition of hemolysis activity is expressed as % hemolysis activity compared to control. The IC₅₀ of the clone was calculated to be about 30 nM.

Data set [6] concerns the target T3, Complement C5 full length. Nature of the data set: filter; 1x DPBS, extent of binding 20%. The settings on record: tags: Quidel Corporation, San Diego.
The target in data set [7] is T2, IFN-gamma. Nature of the data set: inhibition; IFN-gamma/IFN-gamma-R1 ELISA day 1; day 2 70 nM. As to conditions: tags: R&D Systems, Minneapolis; chain copies: 2; label: 5'-32P. The method, then:
as §2, §3

Data set [8] concerns the target T2, IFN-gamma. Nature of the data set: filter; 1x DPBS, 0.1 mg/ml BSA; Table 21 gives 167.31. The settings on record: tags: R&D Systems, Minneapolis; chain copies: 2; label: 5'-32P.
Data set [9] concerns the target T1, VEGF. Nature of the data set: competition; 125I-VEGF binding to HUVEC. The settings on record: chain copies: 2. An excerpt: FIG. 5 is a plot of ARC224 and ARC225 binding to VEGF. […] The supernatant was removed, the cells were washed, and bound VEGF was counted in a scintillation counter. ARC225 has the same sequence as ARC224 and 2′-OMe to 2′-OH substitutions at positions 7, 10, 14, 16, 19, 22 and 24 numbered from the 5′-terminus.

Data set [10] deals with T2, IFN-gamma. Nature of the data set: filter; 1x DPBS, 0.1 mg/ml BSA; Table 21 gives 206. As to conditions: tags: R&D Systems, Minneapolis; chain copies: 2; label: 5'-32P.
Data set [11] addresses T2, IFN-gamma. Nature of the data set: inhibition; IFN-gamma/IFN-gamma-R1 ELISA day 1; day 2 190 nM. As to conditions: tags: R&D Systems, Minneapolis; chain copies: 2; label: 5'-32P. As to the method: as §2, §3
The target in data set [12] is T2, IFN-gamma. Nature of the data set: filter; 1x DPBS, 0.1 mg/ml BSA; Table 21 gives 227.87. The settings on record: tags: R&D Systems, Minneapolis; chain copies: 2; label: 5'-32P.
The target in data set [13] is T1, VEGF. Nature of the data set: FP; placeholder corrected: dot-blot nitrocellulose/nylon filter in PBS. As to conditions: chain copies: 2. As to the method:
as §1

Data set [14] concerns the target T2, IFN-gamma. Nature of the data set: inhibition; IFN-gamma/IFN-gamma-R1 ELISA day 1; day 2 270 nM. As to conditions: tags: R&D Systems, Minneapolis; chain copies: 2; label: 5'-32P. The method, then:
as §2, §3

The target in data set [15] is T2, IFN-gamma. Nature of the data set: filter; 1x DPBS, 0.1 mg/ml BSA; Table 21 gives 169.28. The settings on record: tags: R&D Systems, Minneapolis; chain copies: 2; label: 5'-32P.
In data set [16] the target is T2, IFN-gamma. Nature of the data set: inhibition; ELISA day 2; text assigns ARC872 to E3 but printed sequence matches F3. The settings on record: tags: R&D Systems, Minneapolis; chain copies: 2; putative G4. The method, then:
as §2, §3

T1 sequence (P15692 other isoform, or with tags, fused parts or gaps): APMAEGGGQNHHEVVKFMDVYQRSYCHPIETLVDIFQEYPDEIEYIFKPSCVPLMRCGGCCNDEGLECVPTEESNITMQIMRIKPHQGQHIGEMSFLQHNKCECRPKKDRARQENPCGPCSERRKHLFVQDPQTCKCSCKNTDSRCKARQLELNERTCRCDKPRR
T2 sequence (P01579 24-161, one chain of several): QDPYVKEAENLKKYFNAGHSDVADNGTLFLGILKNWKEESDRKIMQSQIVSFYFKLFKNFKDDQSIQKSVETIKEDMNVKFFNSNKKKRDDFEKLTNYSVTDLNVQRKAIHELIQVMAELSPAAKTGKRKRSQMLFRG
T3 sequence (P01031 19-673, chain 1 of 2): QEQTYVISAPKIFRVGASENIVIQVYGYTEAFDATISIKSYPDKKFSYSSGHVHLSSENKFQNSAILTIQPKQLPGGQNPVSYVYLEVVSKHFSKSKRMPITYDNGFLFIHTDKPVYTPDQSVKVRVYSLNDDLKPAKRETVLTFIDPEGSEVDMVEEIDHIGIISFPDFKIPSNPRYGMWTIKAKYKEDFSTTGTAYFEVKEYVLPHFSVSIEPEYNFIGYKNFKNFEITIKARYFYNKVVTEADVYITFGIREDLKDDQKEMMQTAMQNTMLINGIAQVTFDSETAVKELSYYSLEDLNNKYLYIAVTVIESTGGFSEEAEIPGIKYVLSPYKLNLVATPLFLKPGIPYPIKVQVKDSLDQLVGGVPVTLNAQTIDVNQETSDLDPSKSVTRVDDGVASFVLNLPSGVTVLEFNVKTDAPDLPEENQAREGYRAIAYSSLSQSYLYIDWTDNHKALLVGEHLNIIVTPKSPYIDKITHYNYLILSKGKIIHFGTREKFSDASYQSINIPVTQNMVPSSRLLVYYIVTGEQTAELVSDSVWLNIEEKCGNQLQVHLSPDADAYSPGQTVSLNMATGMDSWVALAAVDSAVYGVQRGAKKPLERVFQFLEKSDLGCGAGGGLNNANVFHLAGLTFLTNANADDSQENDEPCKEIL
T3 sequence (P01031 678-1676, chain 2 of 2): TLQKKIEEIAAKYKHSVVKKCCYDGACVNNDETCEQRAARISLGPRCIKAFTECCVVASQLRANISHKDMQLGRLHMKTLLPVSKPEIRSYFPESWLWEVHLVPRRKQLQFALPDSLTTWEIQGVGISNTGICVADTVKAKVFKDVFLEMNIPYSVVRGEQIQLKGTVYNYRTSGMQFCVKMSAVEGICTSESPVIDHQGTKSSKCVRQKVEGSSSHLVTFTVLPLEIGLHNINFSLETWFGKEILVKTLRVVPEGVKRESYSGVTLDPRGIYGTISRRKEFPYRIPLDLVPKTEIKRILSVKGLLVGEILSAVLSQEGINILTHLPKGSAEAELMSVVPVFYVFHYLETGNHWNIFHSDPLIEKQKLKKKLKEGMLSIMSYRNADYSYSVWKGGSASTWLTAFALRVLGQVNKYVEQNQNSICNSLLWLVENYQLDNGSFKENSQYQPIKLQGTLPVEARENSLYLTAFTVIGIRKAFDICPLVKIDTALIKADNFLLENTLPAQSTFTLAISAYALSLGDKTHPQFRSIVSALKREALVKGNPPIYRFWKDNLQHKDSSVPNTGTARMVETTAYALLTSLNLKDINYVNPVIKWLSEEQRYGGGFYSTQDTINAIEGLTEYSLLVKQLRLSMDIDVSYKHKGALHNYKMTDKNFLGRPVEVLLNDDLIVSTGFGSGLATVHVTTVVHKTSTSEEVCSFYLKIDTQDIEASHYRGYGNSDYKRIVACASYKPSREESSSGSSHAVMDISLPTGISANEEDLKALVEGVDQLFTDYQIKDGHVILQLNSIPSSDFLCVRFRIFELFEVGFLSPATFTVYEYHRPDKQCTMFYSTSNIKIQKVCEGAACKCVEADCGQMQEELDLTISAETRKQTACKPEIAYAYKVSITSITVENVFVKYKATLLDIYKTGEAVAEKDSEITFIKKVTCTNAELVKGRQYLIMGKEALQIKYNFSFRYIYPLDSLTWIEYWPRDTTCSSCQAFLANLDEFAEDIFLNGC

B1: ARC245 (ssRNA)
RNA: AUGCAGUUUGAGAAGUCGCGCAU
modifications: 2'-OMe at all residues; 3'-inverted dT [2'-OMe at 1-23; 3'-inverted dT after nt 23 (not written in sequence)]
Broadly, the Kd is a measure of binding affinity in units of concentration. B1 registered an equilibrium dissociation constant (Kd) in data set [1] of 2.1 nM.

B2: ARC873 (mixed)
RNA: GGGUGGCUGGGGCAGGGGAGGUAGGUAGGG
modifications: dRmY: deoxy A,G; 2'-OMe C,U
One may read the IC50 as the concentration that inhibits the measured activity by half. Higher therefore signals lower potency. In data set [2], B2 had an IC50 of 330 nM. This counts as sub-micromolar.

B3: ARC821 (AMX(216)_A7) (mixed)
DNA: GGGAGAGGAGAGAACGTTCTACGGGGGTCGTGGGAGTAAGGGGGTGTAGGTAGGTCGATCGATCGATCATCGATG
modifications: dRmY: deoxy A,G; 2'-OMe C,U (cDNA printed, T=U)
B3 registered an IC50 in data set [3] of 130 nM. Further, the Kd in data set [4] is 140 nM.

B4: AMX221.E1 (mixed)
DNA: GGGAGAGGAGAGAACGTTCTACCTTGGTTTGGCACAGGCATACATACGCAGGGGTCGATCGATCGATCATCGATG
modifications: dRmY: deoxy A,G; 2'-OMe C,U (cDNA printed, T=U)
For B4, the half-maximal inhibitory concentration (IC50) in [5] was roughly 30 nM. The same molecule registered a Kd in [6] of roughly 140 nM.

B5: ARC789 (AMX(192)_A5) (mixed)
DNA: GGGAGAGGAGAGAACGTTCTACGTTTGCGGTCAGGATGGGGTGGTGGGAGGTCGATCGATCGATCATCGATG
modifications: dRmY: deoxy A,G; 2'-OMe C,U (cDNA printed, T=U)
B5: the IC50 in [7] turned out to be 40 nM. Also, the Kd in data set [8] is 150 nM.

B6: ARC224 (ssRNA)
RNA: CGAUAUGCAGUUUGAGAAGUCGCGCAUUCG
modifications: 2'-OMe at all residues; 3'-inverted dT [2'-OMe at 1-30; 3'-inverted dT after nt 30 (not written in sequence)]
For the molecule B6, in data set [1], the affinity, expressed as Kd, was 3.9 nM. This molecule gave an IC50 in [9] of roughly 2 nM.

B7: ARC819 (AMX(192)_F3) (mixed)
DNA: GGGAGAGGAGAGAACGTTCTACGGGCGGTTGGGGTCGGGGAGGATGGTACAGGGTCGATCGATCGATCATCGATG
modifications: dRmY: deoxy A,G; 2'-OMe C,U (cDNA printed, T=U)
With B7, binding in data set [10] was characterised by a dissociation constant (Kd) of 180 nM.

B8: ARC818 (AMX(192)_E3) (mixed)
DNA: GGGAGAGGAGAGAACGTTCTACGGGTGGCTGGGGCAGGGGAGGTAGGTAGGGTCGATCGATCGATCATCGATG
modifications: dRmY: deoxy A,G; 2'-OMe C,U (cDNA printed, T=U)
In data set [11], B8 registered an IC50 of 220 nM. The dissociation constant (Kd) in data set [12] came to 180 nM.

B9: ARC259 (ssRNA)
RNA: ACGCAGUUUGAGAAGUCGCGCGU
modifications: 2'-OMe at all residues; 3'-inverted dT [2'-OMe at 1-23; 3'-inverted dT after nt 23 (not written in sequence); base pair swap at 2 (U>C) and 22 (A>G)]
For B9, the Kd in data set [13] worked out at 1.4 nM.

B10: ARC820 (AMX(192)_D11) (mixed)
DNA: GGGAGAGGAGAGAACGTTCTACGGGGAGGAGGGTGGGGTAGCAGGTGTGGCAGGTCGATCGATCGATCATCGATG
modifications: dRmY: deoxy A,G; 2'-OMe C,U (cDNA printed, T=U)
B10 yielded an IC50 in [14] of 280 nM. Also, the Kd in data set [15] came out at 170 nM.

B11: ARC872 (mixed)
RNA: GGGCGGUUGGGGUCGGGGAGGAUGGUACAGGG
modifications: dRmY: deoxy A,G; 2'-OMe C,U
For B11, in data set [16], the half-maximal inhibitory concentration (IC50) was 200 nM. That is a sub-micromolar value.

The record behind these values is US20050037394, “Method for in vitro selection of 2'-substituted nucleic acids” (published 2005).
